{"source": "patent US8883964B2", "about": "“Compositions comprising modified collagen and uses therefor” (The Johns Hopkins University, priority 2004, dated 2014)", "key": {"[1]": {"experiment": "Measurement of number of peptides per NP (passivation number)", "format": "physicochemical", "experimental": "The average number of CMPs on the NPs was determined by measuring the concentrations of free CMPs remaining in solution after the removal of the NPs from a series of incubation mixtures with varying CMP/NP ratios (FIG. 16 and Table 3).^36 The numbers of CMPs immobilized on the NP surfaces were 582, 444, and 399 for NP-1, NP-2, and NP-3, respectively. […] This may have been caused by surface anchoring of the chain ends that prohibited the staggered arrangement of the peptide chains required for the formation of triple helix.\nSeven 10 μM Cys-CMP solutions with varying concentrations of citrate-stabilized gold NP (2˜14 nM) were prepared. The mixtures were incubated for 2 hours at 25° C. and the gold NPs were removed by centrifugation. The concentrations of free peptides remaining in the supernatant were determined from the UV-Vis absorbance at 215 nm with citrate ion background subtraction. The number of peptides per Au NP was calculated from the slope of the linear fit of the data points. (FIG. 17)"}, "[2]": {"experiment": "Dynamic light scattering of CMP functionalized gold NPs", "format": "physicochemical", "experimental": "The thickness of the peptide layer on the gold NP surface was determined by dynamic light scattering (DLS) (FIG. 15). The peptide layer thicknesses of NP-1, NP-2 and NP-3 were 2.0 nm, 3.65 nm and 6.85 nm, respectively (Table 3).\nPurified Cys-CMP (peptides 1′˜4′) (0.5 mL, 500 μM) was added to gold nanoparticle solution (5 mL, 17 nM), and the reaction mixture was incubated at room temperature for twenty-four hours. Excess CMPs were removed by repeated centrifugation and washing in deionized water."}, "type I collagen fibers": {"target": "T1, type I collagen fibers (Bos taurus, UniProt P02453+P02465)", "T1 construct": "natural collagen (acid soluble, bovine type I); purchased Sigma", "T1 sequence (P02453 162-1217 limits assumed)": "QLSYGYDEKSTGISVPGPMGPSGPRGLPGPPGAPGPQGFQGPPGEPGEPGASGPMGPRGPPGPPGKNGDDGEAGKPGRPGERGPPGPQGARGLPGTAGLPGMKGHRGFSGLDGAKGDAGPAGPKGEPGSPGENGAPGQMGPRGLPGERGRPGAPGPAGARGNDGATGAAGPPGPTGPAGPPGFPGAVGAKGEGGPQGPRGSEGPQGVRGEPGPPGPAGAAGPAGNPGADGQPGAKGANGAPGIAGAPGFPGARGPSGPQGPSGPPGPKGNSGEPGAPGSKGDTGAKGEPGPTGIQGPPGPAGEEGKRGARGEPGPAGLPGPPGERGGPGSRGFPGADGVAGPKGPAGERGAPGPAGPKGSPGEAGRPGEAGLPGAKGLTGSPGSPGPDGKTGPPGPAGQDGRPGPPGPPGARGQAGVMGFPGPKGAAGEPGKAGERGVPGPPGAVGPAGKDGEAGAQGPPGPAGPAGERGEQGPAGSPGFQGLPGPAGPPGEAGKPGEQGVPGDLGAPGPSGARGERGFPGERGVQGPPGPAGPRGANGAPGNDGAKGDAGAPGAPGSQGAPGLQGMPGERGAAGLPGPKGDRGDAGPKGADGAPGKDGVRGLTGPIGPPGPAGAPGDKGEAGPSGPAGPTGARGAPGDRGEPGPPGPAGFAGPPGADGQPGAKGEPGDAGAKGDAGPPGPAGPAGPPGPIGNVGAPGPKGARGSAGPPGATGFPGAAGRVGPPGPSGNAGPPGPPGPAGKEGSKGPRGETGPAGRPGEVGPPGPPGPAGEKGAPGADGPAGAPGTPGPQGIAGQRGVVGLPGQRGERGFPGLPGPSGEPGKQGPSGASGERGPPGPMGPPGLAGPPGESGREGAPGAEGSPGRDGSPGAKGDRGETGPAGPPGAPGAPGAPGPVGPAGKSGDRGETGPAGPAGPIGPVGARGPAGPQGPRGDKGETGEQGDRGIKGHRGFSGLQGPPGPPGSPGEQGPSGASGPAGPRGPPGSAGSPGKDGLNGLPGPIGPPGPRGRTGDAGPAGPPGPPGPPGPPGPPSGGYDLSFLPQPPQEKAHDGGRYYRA", "T1 sequence (P02465 80-1117 limits assumed)": "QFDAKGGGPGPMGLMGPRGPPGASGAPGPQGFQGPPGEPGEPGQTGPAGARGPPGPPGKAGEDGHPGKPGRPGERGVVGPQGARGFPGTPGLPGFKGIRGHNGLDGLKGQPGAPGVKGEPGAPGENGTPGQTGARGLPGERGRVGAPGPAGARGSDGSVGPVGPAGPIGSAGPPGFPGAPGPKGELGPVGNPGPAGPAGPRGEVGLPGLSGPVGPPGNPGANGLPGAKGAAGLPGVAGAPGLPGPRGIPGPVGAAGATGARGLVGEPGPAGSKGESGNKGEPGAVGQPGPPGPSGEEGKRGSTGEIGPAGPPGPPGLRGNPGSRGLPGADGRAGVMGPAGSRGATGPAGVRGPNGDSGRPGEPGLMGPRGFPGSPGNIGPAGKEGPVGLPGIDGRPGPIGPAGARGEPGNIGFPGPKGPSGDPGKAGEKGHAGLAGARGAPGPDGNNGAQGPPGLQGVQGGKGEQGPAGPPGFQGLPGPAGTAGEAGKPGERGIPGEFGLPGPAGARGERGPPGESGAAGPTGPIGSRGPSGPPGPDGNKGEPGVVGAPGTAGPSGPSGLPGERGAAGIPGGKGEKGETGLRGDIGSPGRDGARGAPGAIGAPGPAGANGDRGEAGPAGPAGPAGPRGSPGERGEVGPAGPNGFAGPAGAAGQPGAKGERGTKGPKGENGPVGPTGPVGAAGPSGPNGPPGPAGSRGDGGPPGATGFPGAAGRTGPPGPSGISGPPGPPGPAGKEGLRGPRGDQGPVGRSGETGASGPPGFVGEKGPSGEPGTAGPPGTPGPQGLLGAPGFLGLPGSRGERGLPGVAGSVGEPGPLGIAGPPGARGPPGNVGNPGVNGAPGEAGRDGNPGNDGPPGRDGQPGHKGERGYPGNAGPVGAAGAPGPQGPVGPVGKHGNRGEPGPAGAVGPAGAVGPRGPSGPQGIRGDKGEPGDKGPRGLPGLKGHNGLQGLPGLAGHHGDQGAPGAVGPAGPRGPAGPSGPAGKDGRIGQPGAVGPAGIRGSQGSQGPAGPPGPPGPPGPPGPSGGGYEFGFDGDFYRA", "experiment": "TEM analysis of NP binding to reconstituted type I collagen fibers", "set-up": "species or system bovine", "settings": "phosphate buffer at 25° C.", "experimental": "Moreover, NP-3 seemed to bind to defined locations within the gap regions along the fiber axis (FIG. 19C). Due to the large particle size and limitations of transmission electron microscopy resolution, the exact locations of these binding sites could not be determined. Twice as many NP-3 particles per unit area was found in the gap regions (dark bands) than on the overlap regions (light bands) of the collagen fibers. This difference was abolished at incubation temperatures above 40° C. (FIG. 20).\nCollagen fibers were regenerated by mixing 0.5 mL of acid soluble type I collagen (1 mg/mL) in 50 mM acetic acid solution with 1 mL of sodium phosphate buffer (10 mM, pH 8.25). The mixture was incubated at room temperature for 12 hours.\nA drop (8 μL) of type I collagen solution (0.3 mg/mL in PBS containing 1% BSA) was added to a holey carbon TEM grid. NP-3 solution (3 nM in PBS containing 1% BSA) was added to the grid and incubated for 5 minutes at room temperature or at 40° C., followed by washing with deionized water. The collagen fibers were stained with uranyl acetate (1%)."}}, "note": "Square brackets hold non-standard residues; d marks the D form. Ends that are not written are not given here. Hyp = O=C(O)[C@@H]1C[C@@H](O)CN1", "data": [{"substance": "NP-4: gold nanoparticle functionalized with scrambled peptide 4′ (CGPG[Hyp]P[Hyp]PPGPP[Hyp]G[Hyp][Hyp]P[Hyp]G[Hyp]GG; also: N-terminal Cys bound to gold nanoparticle surface)", "values": [{"measurement": "Number of peptides per NP", "setting": "[1]", "value": "524 ± 59"}, {"measurement": "Particle Size by DLS", "setting": "[2]", "value": "16.2 ± 3.1", "unit": "nm"}, {"measurement": "Measured Peptide layer thickness", "setting": "[2]; DLS", "value": 1.5, "unit": "nm"}, {"measurement": "binding to type I collagen fibers", "setting": "type I collagen fibers", "value": "little binding"}]}]}
